In data set [1] the test system is LS-180 tumor. As to conditions: mouse, in vivo.
Protocol: (§2) Time 0 inject (i.v.) 200 μg NR-LU-10-StrAv
Data set [2] can be described thus: Tumor uptake of PIP-biocytin (two-step pretargeting). Type of data set: in vivo, tumored nude mice. Particulars: mouse, tumor, 0.0005 mg; 0.5 μg dose; 120 hour time point (96 hours after administration); read-out: peak tumor uptake. As to the method: (§1) At 24 hours, the mice received an i.v. injection of PIP-I-131-biocytin (40 μCi) and an amount of cold carrier PIP-I-127 biocytin corresponding to doses of 42 μg (69,767 pmol), 21 μg (34,884 pmol), 5.7 μg (9468 pmol), 2.85 μg (4734 pmol) or 0.5 μg (830 pmol).

In data set [3] the test system is LS-180 tumor xenografts. The description is as above. In kind it is in vivo, tumored nude mice. As to the method: as §1
The test system of data set [4] is LS-180 tumor xenografts. In words: Two-step pretargeting of 131I-PIP-biocytin in tumor-bearing mice. In kind it is in vivo, female nude mice. As to conditions: 200 μg NR-LU-10-streptavidin at t=0; 42 μg at t=36 h. The method, then:
At t=0, the mice were injected with 200 μg of NR-LU-10-streptavidin conjugate labeled with ^125 I using PIP-NHS (see Example IV.A.). At t=36 h, the mice received 42 μg of ^131 IPIP-biocytin.

A short description of data set [5]: in vivo. Particulars: mouse.
Protocol: as §2
The format of data set [6] is in vivo, female BALB/c mice. Particulars: 5 minutes post-administration, percent injected dose of I-125-labeled protein. As to the method: A. Derivitization of orosomucoid. 10 mg human orosomucoid (Sigma N-9885) was dissolved in 3.5 ml of pH 5.5 0.1 M sodium acetate buffer containing 160 mM NaCl. 70 μl of a 2% (w/v) CaCl solution in deionized (D.I.) water was added and 11 μl of neuraminidase (Sigma N-7885), 4.6 U/ml, was added. The mixture was incubated at 37° C. for 2 hours, and the entire sample was exchanged over a Centricon-10® ultrafiltration device (available from Amicon, Danvers, Mass.) with 2 volumes of PBS. The asialoorosomucoid and orosomucoid starting material were radiolabeled with I-125 using PIP technology, as described in Example IV above.
In addition, two animals receiving each compound were sacrificed at 5 minutes post-administration and limited biodistributions were performed.

For data set [7], the target named is T1, Streptavidin-agarose beads (Streptomyces avidinii, UniProt P22629).
T1 construct: purchased Sigma S-1638
T1 sequence (P22629 25-183): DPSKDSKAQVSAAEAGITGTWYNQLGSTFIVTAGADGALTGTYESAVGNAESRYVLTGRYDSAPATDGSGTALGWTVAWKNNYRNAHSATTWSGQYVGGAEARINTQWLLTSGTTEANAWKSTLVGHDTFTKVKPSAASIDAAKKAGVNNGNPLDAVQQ
In words: Binding to streptavidin-agarose beads. Particulars: for Pellet: radioactivity bound to beads; for Supernatant: radioactivity not bound to beads. As to the method: B. Biotinylation of asialoorosomucoid clearing agent and orosomucoid control. 100 μl of 0.2 M sodium carbonate buffer, pH 9.2, was added to 2 mg (in 1.00 ml PBS) of PIP-125-labeled orosomucoid and to 2 mg PIP-125-labeled asialoorosomucoid. 60 μl of a 1.85 mg/ml solution of NHS-amino caproate biotin in DMSO was then added to each compound. The reaction mixtures were vortexed and allowed to sit at room temperature for 45 minutes. […]. Streptavidin-agarose beads (Sigma S-1638) or -pellets were washed with PBS, and 20 μg of each biotinylated, radiolabeled protein was added to 400 μl of beads and 400 μl of PBS, vortexed for 20 seconds and centrifuged at 14,000 rpm for 5 minutes. The supernatant was removed and the pellets were washed with 400 μl PBS. This wash procedure was repeated twice more, and the combined supernatants were assayed by placing them in a dosimeter versus their respective pellets.

In data set [8] the test system is LS-180 human colon tumor xenografts. As to the method:
The experimental protocol was as follows:
Group 1: Time 0, inject 100 μg ^125 I-labeled,
The three radiolabels employed in this protocol are capable of detection in the presence of each other.
Areas under the curves (AUC) and the ratio of AUCtumor /AUCblood were determined.

For data set [9] the following is noted: in vivo; cited from earlier work.

Where two headings read alike, the source gives them in different places.

On to `O=C(CCCCC1SCC2NC(=O)NC21)NCCCCC(NC(=O)c1ccc([131I])cc1)C(=O)O` (stereo not shown) [PIP-biocytin], for which, in [1], the peak tumor uptake result is recorded as “about 700 pMOL/G” and the tumor uptake result was “above 500 pMOL/G”. Moreover, in data set [2], the tissue uptake at 96 h turned out to be 85 %ID/g. Further, the “absolute AUCtumor” value in data set [3] (mouse, in vivo) turned out to be 9220. Also, the tumor localization entry in [3] (three highest doses (42, 21, 5.7 μg), 4 hours after injection) is listed as “about 600 pmol/g”. The “specific tumor localization, molecules per avidin molecule” value in data set [4] was “≈ 1.5”. The half-life in data set [5] was about 5 min.
With “orosomucoid: human orosomucoid (alpha-1 acid glycoprotein, Sigma N-9885), I-125 labeled [reference compound]”, the blood level in data set [6] came out at 78%. Further, in data set [7], the Pellet turned out to be 10% and the Supernatant is 90%.
Molecule “asialoorosomucoid: orosomucoid treated with neuraminidase to remove sialic acid residues” showed a blood level in data set [6] of 0.4%. In [7], the Pellet is reported as 8.0% and the Supernatant is reported as 92%.
Take Avidin: the tumor uptake entry in data set [8] (at 25 h (antibody at time 0, avidin at 24 h)) is “about 250 pmol/g”; in [8] (at 32 h (antibody at time 0, avidin at 24 h)), about 150 pmol/g; in data set [8] (at 48 h (antibody at time 0, avidin at 24 h)) it was about 50 pmol/g; in data set [8] (at 120 h (antibody at time 0, avidin at 24 h)), about 0 pmol/g.
As to TNF-alpha, the serum half-life in data set [9] is 10 to 15 min.

B1: TNF-beta: tumor necrosis factor beta form, 171 amino acids (protein, UniProt P01374 35-205, looked up)
Lymphotoxin-alpha: LPGVGLTPSAAQTARQHPKMHLAHSTLKPAAHLIGDPSKQNSLLWRANTDRAFLQDGFSLSNNSLLVPTSGIYFVYSQVVFSGKAYSPKATSSPLYLAHEVQLFSSQYPFHVPLLSSQKMVYPGLQEPWLHSMYHGAAFQLTQGDQLSTHTDGIPHLVLSPSTVFFGAFAL
As for B1, the serum half-life in data set [9] was 10 to 15 min.

Broadly, the half-life is the time in which the quantity being followed falls by half. Low values mean fast loss, high ones slow loss.

Values taken from patent US5976535A, “Pretargeting protocols for the enhanced localization of cytotoxins to target sites and cytotoxic combinations useful therefore” (NeoRx Corporation, priority 1995, dated 1999).
